Experiments:
[1] = target: T1, Arabidopsis thaliana ethylene receptor ETR1 (AtETR1), full-length, type-I subfamily (Arabidopsis thaliana, UniProt P49333 1-738, Alexa Fluor 488 succinimidyl-ester label where used as the labeled partner in MST); assay: MST; 40 nM Alexa Fluor 488-labeled receptor (AtETR1 or AtETR2); unlabeled AtETR1 or AtETR2 (4 µM to 0.49 nM) or ETR1-TM C4SC6S (16 µM to 0.98 nM) titrated; 0.0075% (w/v) FosCholine-16; 60% MST power; 1:1 model; conditions: both partners purified
T1 construct: ETR1, Arabidopsis thaliana, full-length receptor; source: recombinant, expressed and purified as described in Milić et al., 2018, in FosCholine-16
T1 sequence (looked up): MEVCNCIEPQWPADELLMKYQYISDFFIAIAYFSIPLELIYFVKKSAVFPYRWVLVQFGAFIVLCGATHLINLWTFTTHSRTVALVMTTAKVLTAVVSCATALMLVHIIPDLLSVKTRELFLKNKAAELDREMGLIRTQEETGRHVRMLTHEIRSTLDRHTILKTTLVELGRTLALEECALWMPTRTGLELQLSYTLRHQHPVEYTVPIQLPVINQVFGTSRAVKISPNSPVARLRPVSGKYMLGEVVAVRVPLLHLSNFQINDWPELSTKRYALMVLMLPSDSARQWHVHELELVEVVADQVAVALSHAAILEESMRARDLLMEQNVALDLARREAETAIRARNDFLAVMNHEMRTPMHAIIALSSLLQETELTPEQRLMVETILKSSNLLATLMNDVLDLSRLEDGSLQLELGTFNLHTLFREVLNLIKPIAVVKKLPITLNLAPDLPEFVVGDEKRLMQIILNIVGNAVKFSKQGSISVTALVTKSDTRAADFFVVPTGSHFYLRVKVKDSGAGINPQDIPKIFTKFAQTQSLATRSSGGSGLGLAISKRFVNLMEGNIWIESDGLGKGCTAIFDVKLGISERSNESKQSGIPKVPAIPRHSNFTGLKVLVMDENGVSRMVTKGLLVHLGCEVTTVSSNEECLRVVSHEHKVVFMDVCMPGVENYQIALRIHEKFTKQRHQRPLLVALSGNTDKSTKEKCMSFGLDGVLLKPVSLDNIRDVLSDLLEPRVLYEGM

[2] = target: T2, Arabidopsis thaliana ethylene receptor ETR2 (AtETR2), full-length, type-II subfamily (Arabidopsis thaliana, UniProt Q0WPQ2 1-773, Alexa Fluor 488 succinimidyl-ester label where used as the labeled partner in MST); assay: as above; conditions: both partners purified
T2 construct: ETR2, Arabidopsis thaliana, UniProt Q0WPQ2, full-length, codon optimized cDNA according to NCBI NM_113216.3; The thrombin site of pGEX-4T-1 was changed to a TEV site (ENLYFQG); No cleavage is described; The purified protein runs at an apparent 120 kDa, so GST is probably still attached; The same construct was used with and without the Alexa Fluor 488 label; source: E. coli C43 (DE3), solubilised …
T2 sequence (looked up): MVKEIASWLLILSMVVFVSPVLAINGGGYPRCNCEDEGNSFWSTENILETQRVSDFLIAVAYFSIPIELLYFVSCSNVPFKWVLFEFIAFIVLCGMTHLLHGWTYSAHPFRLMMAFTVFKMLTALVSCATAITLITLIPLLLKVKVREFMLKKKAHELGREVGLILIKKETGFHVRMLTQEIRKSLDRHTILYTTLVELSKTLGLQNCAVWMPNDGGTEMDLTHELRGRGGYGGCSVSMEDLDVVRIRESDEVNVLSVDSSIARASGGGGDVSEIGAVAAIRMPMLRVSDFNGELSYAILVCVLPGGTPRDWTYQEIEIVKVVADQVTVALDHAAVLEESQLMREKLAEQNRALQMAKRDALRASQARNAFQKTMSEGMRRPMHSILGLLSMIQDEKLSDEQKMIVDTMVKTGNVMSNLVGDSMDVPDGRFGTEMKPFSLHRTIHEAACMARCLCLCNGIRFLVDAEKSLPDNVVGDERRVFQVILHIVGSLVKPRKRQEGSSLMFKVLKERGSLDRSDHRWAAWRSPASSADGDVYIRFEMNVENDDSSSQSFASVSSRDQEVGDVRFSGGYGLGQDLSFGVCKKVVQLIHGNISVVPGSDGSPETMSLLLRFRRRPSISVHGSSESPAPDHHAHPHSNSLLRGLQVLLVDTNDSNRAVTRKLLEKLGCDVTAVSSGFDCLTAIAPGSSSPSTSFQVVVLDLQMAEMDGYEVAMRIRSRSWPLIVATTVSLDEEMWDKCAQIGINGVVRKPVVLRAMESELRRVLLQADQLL

B1: Isolated transmembrane domain of AtETR1 (aa 1-157) with C4S and C6S (domain or fragment, Arabidopsis thaliana, UniProt P49333 1-157, looked up)
chain: MEVSNSIEPQWPADELLMKYQYISDFFIAIAYFSIPLELIYFVKKSAVFPYRWVLVQFGAFIVLCGATHLINLWTFTTHSRTVALVMTTAKVLTAVVSCATALMLVHIIPDLLSVKTRELFLKNKAAELDREMGLIRTQEETGRHVRMLTHEIRSTL
notes: ETR1, Arabidopsis thaliana, transmembrane domain, residues 1-157, cysteines 4 and 6 changed to serine; also called ETR1-TM^C4SC6S; AtETR1-TM^C4SC6S
B1: binds [1]; binds [2].

Reference: PMC6566107, “Molecular Analysis of Protein-Protein Interactions in the Ethylene Pathway in the Different Ethylene Receptor Subfamilies” (Frontiers in Plant Science, 2019)
